Positions count from the first letter of the chain named. Entries after “also recorded” stand apart in the source; their conditions may differ.
Key:
[1] = molecular target: T1, RANK fragment 498-556 (Myc-RANK) (Mus musculus, UniProt O35305); test: Co-immunoprecipitation with Myc-RANK in 293T cells; format: binding; conditions: cotransfection with Myc-RANK in 293T cells; IP then Western blot
T1 construct: expressed in transfected cells; host or cells: 293T cells
T1 sequence (O35305 498-556): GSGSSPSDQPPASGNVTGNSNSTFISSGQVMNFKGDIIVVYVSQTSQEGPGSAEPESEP
Procedure: (§1) 293T cells were cultured in DMEM containing 10% heat-inactivated fetal bovine serum (HI-FBS) and penicillin/streptomycin (culturing medium). Cells grown near confluence were lifted and replated at density of 5×10^6 cells/dish in 100-mm tissue culture dishes the day before transfection. Total 8 μg plasmid was transfected into 293T cells using Lipofectamine™ in combination of Plus® Reagent (Invitrogen). Briefly, 8 μg plasmid was mixed with 20 μl Plus®Reagent before addition of 350 μl DMEM. The mixture was incubated at RT for 15 min and then added with 380 μl freshly prepared Lipofectamine™ Reagent (Lipofectamine™ Reagent+350 μl DMEM). The complete transfection solution was further incubated at RT for 15 min before being added to one dish of 293T cells which was washed with DMEM twice immediately before the addition of the solution. The cells were incubated at 37° C. for 3 hrs before addition of 6.5 ml culturing medium and the incubation continued overnight. […]
As such, the potential of RYBP as a signaling molecule interacting with the IVVY (SEQ ID NO:4) motif was examined to regulate osteoclastogenesis. […] It was then determined whether the interaction between the RANK fragment and RYBP seen in yeast also occurs in mammalian cells. the cDNA region encoding the bait was cloned into pCMV-Myc vector (BD Biosciences Clontech) to generate Myc-RANK (FIG. 1C). […]

[2] = molecular target: T2, Myc-mRANK (RANK fragment with IVVY to IVAF inactivating mutation) (Mus musculus, UniProt O35305, V537A/Y538F); test: Co-immunoprecipitation with Myc-mRANK in 293T cells; format: binding; conditions: cotransfection with Myc-mRANK; IP anti-Myc, WB anti-HA
T2 construct: expressed in transfected cells; host or cells: 293T cells
T2 sequence (O35305 498-556 V537A/Y538F): T1 sequence (O35305 498-556) with V40A, Y41F
Procedure: as §1, with “overnight. Next day, the medium containing the DNA/transfection reagents was replaced with fresh culturing medium.” for “overnight.”
Next, it was determined whether the IVVY (SEQ ID NO:4) motif in the RANK region is specifically responsible for interaction with RYBP. […] Cell lysates were coimmunoprecipitated with anti-Myc antibody and then the precipitates were analyzed by Western analysis with anti-HA antibody.

**Q.** For “HA-RYBP: full-length RYBP cDNA subcloned into pCMV-HA vector”, which “interaction with RANK (co-IP band)” value [1] is on record?
**A.** gave rise to a positive band; also recorded: yielded a positive band

**Q.** And the “interaction with IVVY-mutated RANK (co-IP band)” value [2]?
**A.** failed to do so
